Reference: patent US20160200813A1 (AbbVie / Abbott, published 2016)
Where “and” joins values, the source holds several entries; their conditions need not be identical. Identical values can stand only once. Blank lines part the entries; values can stand above or below the binder they belong to. *1 amine or outer side, *2 acyl side, *3 side chain or, on linkers, in order; H or OH if unused. Bridges are numbered along the chain shown (N, C = ends). Where no end group is shown, it is not given here. Lys(Aoa) = NOCC(=O)NCCCC[C@H](N[*:1])C(=O)[*:2]

Assays:
[1] = target: T1, Cynomolgus monkey LRP-8 expressed on HEK293 cells (cynomolgus monkey); experiment: cell-based ECL-MSD, 10 ug/ml Ab, cyno-LRP-8-HEK293
T1 construct: whole, on cells; also called cyno LRP-8; cLRP-8
Description: (§1) A cell-based ECL-MSD binding assay was used to determine antibody affinity. HEK293 cells overexpressing human, monkey or mouse LRP-8 were added onto MSD 96-well plate (MSD Cat# L15XB-3/L11XB-3) and incubated at 37° C. for one hour. Cells were blocked using 15% FBS (Hyclone, Thermo Scientific Cat# SH300700.03) at RT for 30 minutes with mild agitation. Plates were washed with DPBS three times and Abs or DVD-Ig binding proteins were added to the well. After incubation at RT for one hour, plates were washed with DPBS and goat anti-human or anti-mouse Sulfo TAG (MSD Cat#R32AJ-1) was added. Plates were incubated at RT for one hour, washed with DPBS and immersed in MSD read buffer (MSD Cat#R92TD-2) before reading on a MSD SECTOR Imager 6000. EC50 values were obtained using Xlfit4 software system.

[2] = target: T2, Human LRP-8 (isoform 3) expressed on cells (human, UniProt Q14114 33-963); experiment: huLRP-8 cell-based binding
T2 construct: also called hLRP-8; huLRP-8

[3] = target: T2, Human LRP-8 (isoform 3) expressed on …; experiment: cell-based ECL-MSD, 10 ug/ml Ab, human_LRP-8_HEK293
Description: as §1

[4] = target: T2, Human LRP-8 (isoform 3) expressed on …; experiment: cell-based or functional assay
[5] = target: T1, Cynomolgus monkey LRP-8 expressed on …; experiment: FACS, cyno LRP8 cells
[6] = target: T3, CR1.4 variant cyclic peptide (human, disulfide 1-13); experiment: BIACORE and direct ELISA
T3 peptide: H-CEKDQAQARAERCIPSVWR-{Lys(Aoa)-NH2}

[7] = target: T1, Cynomolgus monkey LRP-8 expressed on …; experiment: cell-based binding assay, cynoLRP8
[8] = target: T1, Cynomolgus monkey LRP-8 expressed on …; experiment: cell-based MSD-ECL binding on cells overexpressing cyno LRP-8 variant 1 (cynoLRP8 assay)
Description: as §1

[9] = target: T2, Human LRP-8 (isoform 3) expressed on …; experiment: cell-based MSD-ECL binding on cells overexpressing human LRP-8 variant 3 (hLRP8 assay)
Description: as §1

[10] = target: T4, CR1.2 variant cyclic peptide (human, disulfide 1-13); experiment: ELISA, antibody titrated on coated CR1.2 peptide
T4 peptide: H-CEKDQFQARNERCIPSVWR-{Lys(Aoa)-NH2}
Description: (§2) High binding MSD plates (MSD Cat# L15XB-3/L11XB-3) were coated with 1 μg/ml of CR1 or CR2 peptide overnight at 4° C. The next day, the plate was blocked with 3% MSD blocking buffer (MSD Cat# R93AA-01) for 1 hour at RT. The plates were washed with TTBS buffer (20 mM Tris; 0.5% Tween, 150 mM sodium chloride; pH 7.5) three times and a titer of anti-LRP-8 human Fc Ab was added. After incubating for 1 hour at RT, plate was washed and anti-human SULFO-TAG Ab was added to the plate and incubated for 1 hour. The plates were washed and immersed in MSD read buffer T with surfactant (MSD Cat# R92TC-1) before reading on an MSD SECTOR Imager 6000. Data were obtained and analyzed using a GraphPad Prism 6 software package (GraphPad Software, Inc., La Jolla, Calif.).

[11] = target: T5, CR2 cyclic peptide of human LRP-8 (human, disulfide 1-13); experiment: antibody titrated on plates coated with 1 ug/ml CR2 peptide (Example 1.12.2); lower table, column ng/ml
T5 construct: also called CR2 peptide; conjugated human LRP-8 CR2 peptide
T5 peptide: CADSDFTSDNGHCIHERWK-{Lys(Aoa)-NH2}
Description: as §2

[12] = target: T6, CR1 cyclic peptide of human LRP-8 (human, disulfide 1-13); experiment: ELISA using CR1 peptide
T6 construct: also called CR1 peptide; conjugated human LRP-8 CR1 peptide
T6 peptide: CEKDQFQSRNERCIPSVWR-{Lys(Aoa)-NH2}

[13] = target: T7, CR1.3 variant cyclic peptide (human, disulfide 1-13); experiment: ELISA, antibody titrated on coated CR1.3 peptide
T7 peptide: H-CEKDQFQSRAERCIPSVWR-{Lys(Aoa)-NH2}
Description: as §2

[14] = target: T8, CR1.1 variant cyclic peptide (human, disulfide 1-13); experiment: ELISA, antibody titrated on coated CR1.1 peptide
T8 peptide: H-CEKDQAQSRNERCIPSVWR-{Lys(Aoa)-NH2}
Description: as §2

[15] = target: T6, CR1 cyclic peptide of human LRP-8; experiment: antibody titrated on plates coated with 1 ug/ml CR1 peptide (Example 1.12.2); lower table, column ng/ml
Description: as §2

[16] = target: T2, Human LRP-8 (isoform 3) expressed on …; experiment: cell-based binding assay, hLRP8
[17] = target: T1, Cynomolgus monkey LRP-8 expressed on …; experiment: cell-based binding on CYNO LRP8-HEK293, supernatant 1:125
[18] = target: T1, Cynomolgus monkey LRP-8 expressed on …; experiment: cell-based binding on CYNO LRP8-HEK293, supernatant 1:5
[19] = target: T1, Cynomolgus monkey LRP-8 expressed on …; experiment: cell-based binding on CYNO LRP8-HEK293, supernatant 1:25
[20] = target: T1, Cynomolgus monkey LRP-8 expressed on …; experiment: cell-based MSD, 1 to 125, cyno-LRP8-HEK293
[21] = target: T1, Cynomolgus monkey LRP-8 expressed on …; experiment: cell-based MSD, 1 to 5, cyno-LRP8-HEK293
[22] = target: T2, Human LRP-8 (isoform 3) expressed on …; experiment: cell-based MSD, 1 to 5, human_LRP8_HEK293
[23] = target: T2, Human LRP-8 (isoform 3) expressed on …; experiment: cell-based MSD, 1 to 125, human_LRP8_HEK293
[24] = target: T2, Human LRP-8 (isoform 3) expressed on …; experiment: cell-based or functional assay; remark: listed apart in the source
[25] = target: T1, Cynomolgus monkey LRP-8 expressed on …; experiment: cell-based MSD, 1 to 25, cyno-LRP8-HEK293
[26] = target: T2, Human LRP-8 (isoform 3) expressed on …; experiment: cell-based MSD, 1 to 25, human_LRP8_HEK293

T2 sequence (Q14114 other isoform, or with tags, fused parts or gaps limits assumed): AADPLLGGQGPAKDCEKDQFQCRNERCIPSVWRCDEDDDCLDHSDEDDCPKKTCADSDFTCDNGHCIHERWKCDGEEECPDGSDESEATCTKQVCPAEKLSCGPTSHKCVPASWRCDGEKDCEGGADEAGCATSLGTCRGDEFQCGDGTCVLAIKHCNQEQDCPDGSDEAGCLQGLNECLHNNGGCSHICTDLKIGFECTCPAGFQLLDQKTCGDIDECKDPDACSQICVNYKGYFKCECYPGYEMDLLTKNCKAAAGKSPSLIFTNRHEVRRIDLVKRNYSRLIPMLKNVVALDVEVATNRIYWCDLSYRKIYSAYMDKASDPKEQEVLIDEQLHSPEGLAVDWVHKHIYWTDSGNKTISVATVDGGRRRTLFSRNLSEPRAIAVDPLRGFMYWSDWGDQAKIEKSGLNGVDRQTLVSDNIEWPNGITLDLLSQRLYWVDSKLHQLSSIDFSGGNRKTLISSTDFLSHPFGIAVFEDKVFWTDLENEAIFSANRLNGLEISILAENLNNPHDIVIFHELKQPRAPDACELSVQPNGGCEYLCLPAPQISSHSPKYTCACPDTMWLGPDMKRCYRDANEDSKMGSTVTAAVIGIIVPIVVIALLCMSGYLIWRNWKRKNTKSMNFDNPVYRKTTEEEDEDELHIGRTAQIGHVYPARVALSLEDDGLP

- fold over mIgG control [1]: 7 fold
- EC50 [2]: 0.4 nM
- fold over mIgG control [3]: 15.1 fold
- Endocytosis, fold over IgG control [4]: 1.7 fold
- Transcytosis, fold over IgG control [4]: 2 fold
B1: anti-LRP-8 ML199-11H1.5B2 murine antibody (muFc) (antibody, V domains shown)
VH: EVQLVESGGDLVKPGGSLKLSCAASRFTFSNYGMSWVRQTPDKRLEWVATISSGGRYTYYPDSVKGRFTISRDNAKNTLYLQMSSLRSEDTAMYYCARDYLYAMDYWGQGTSVTVSS
VL: DVVMTQTPLSLPVSLGDQASISCRSSQSLVYSNGNTYLHWYLQKPGQSPKVLMYKVSNRFSGVSDRFSGSGSGTDFTLKISRVEAEDLGVYFCSQSTHVPLTFGAGTKLELK
notes: Mouse Fc form (muFc); also called ML199-11H1-5B2 muFc; anti-LRP-8,11H1.5B2

- FACS (ratio +/-) [5]: 141 ratio
- binding result [6]: no binding
- EC50 [7]: 0.21 nM
- EC50 [8]: 0.0691 µg/mL and 0.46 nM
- EC50 [9]: 0.0484 µg/mL and 0.32 nM
- binding result [10]: binds
- EC50 [11]: 0.312 µg/mL
- OD450 [12]: 4 OD450
- binding result [13]: binds
- binding result [14]: no binding (tested: 10000 ng/ml)
- EC50 [15]: 0.225 µg/mL
- EC50 [16]: 0.22 nM
B2: chimeric anti-LRP-8 ML199.11H1.5B2 antibody [mu/hu IgG1/k] LALA (antibody, V domains shown)
VH: EVQLVESGGDLVKPGGSLKLSCAASRFTFSNYGMSWVRQTPDKRLEWVATISSGGRYTYYPDSVKGRFTISRDNAKNTLYLQMSSLRSEDTAMYYCARDYLYAMDYWGQGTSVTVSS
VL: DVVMTQTPLSLPVSLGDQASISCRSSQSLVYSNGNTYLHWYLQKPGQSPKVLMYKVSNRFSGVSDRFSGSGSGTDFTLKISRVEAEDLGVYFCSQSTHVPLTFGAGTKLELK
notes: Mouse variable domains on human IgG1/kappa with L234A, L235A (LALA); also called ML199.11H1.5B2 hFc; ML199.11H1.5B2 mu/hu IgG1 m/k

- fold over isotype control [17]: 1.5 fold
- fold over isotype control [18]: 3.23 fold
- fold over isotype control [19]: 1.86 fold
- fold over IgG control [20]: 1.8 fold
- fold over IgG control [21]: 2 fold
- fold over IgG control [22]: 5 fold
- fold over IgG control [23]: 5 fold
- Endocytosis, fold over-IgG [24]: 5.18 fold
- Transcytosis, fold over-IgG [24]: 2.17 fold
- fold over IgG control [25]: 1.9 fold
- fold over IgG control [26]: 5.2 fold
B3: BGK-7F7 (GENOVAC candidate clone of Table 17) (antibody, V domains shown)
VH: QVTLKESGPGILQPSQTLSLTCTFSGFSLSTYGLGVGWIRQPSGKGLEWLANIWWDDAKYYNPSLKNRLTISKDTSNNQAFLKIPNVDTADTARYYCARTTKPYYFDYWGQGVMVTVSS
VL: HFVLAQPNSVSTNLGSTVKLSCKRSTANIGSNYVNWYQQHEGRSPTTLIYRDDRRPDGVPDRFSGSIDRSSNSALLTINNVQTEDEADYFCQSYSSGINIFGGGTKLTVL
notes: here the candidate from rat immunization before chimerization, tested at dilutions
